Reference: publication PMC10391570 (Cell Reports Methods, 2023)
Each block holds one binder with its values, some of them ahead of it.

Tests used:
Assay in all cases: ELISA
[1] = molecular target: Der f1 (Dermatophagoides farinae, UniProt P16311, biotin (Biotin Conjugation Kit, Lightning-Link))
[2] = molecular target: Fel d1 (Felis catus, UniProt P30438;P30440)
[3] = molecular target: Der p2 (Dermatophagoides pteronyssinus, UniProt P49278, biotin (Biotin Conjugation Kit, Lightning-Link))
[4] = molecular target: Ole e1 (Olea europaea, UniProt P19963, biotin (Biotin Conjugation Kit, Lightning-Link))
[5] = molecular target: Der p1 (Dermatophagoides pteronyssinus, UniProt P08176, biotin (Biotin Conjugation Kit, Lightning-Link))
Chain of Der p1 (P08176 99-320): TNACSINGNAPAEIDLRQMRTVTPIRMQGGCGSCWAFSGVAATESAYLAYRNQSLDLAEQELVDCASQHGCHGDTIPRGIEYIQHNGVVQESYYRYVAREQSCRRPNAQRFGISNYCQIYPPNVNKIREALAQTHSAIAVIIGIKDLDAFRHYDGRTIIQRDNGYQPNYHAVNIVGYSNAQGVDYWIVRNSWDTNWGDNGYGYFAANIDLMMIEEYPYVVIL

Chain of Der p2 (P49278 18-146): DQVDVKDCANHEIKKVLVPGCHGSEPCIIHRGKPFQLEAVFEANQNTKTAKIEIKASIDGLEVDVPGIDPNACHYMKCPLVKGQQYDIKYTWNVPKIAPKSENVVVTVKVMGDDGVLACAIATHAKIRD
Chain of Der f1 (P16311 99-321): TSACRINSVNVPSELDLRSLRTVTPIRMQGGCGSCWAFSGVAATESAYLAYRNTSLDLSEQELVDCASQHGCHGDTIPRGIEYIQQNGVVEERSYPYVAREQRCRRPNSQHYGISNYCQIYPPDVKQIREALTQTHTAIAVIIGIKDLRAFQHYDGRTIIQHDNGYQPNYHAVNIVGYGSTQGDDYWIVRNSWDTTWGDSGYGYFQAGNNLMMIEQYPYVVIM
Chain of Fel d1 (P30438 23-92, chain 1 of 2): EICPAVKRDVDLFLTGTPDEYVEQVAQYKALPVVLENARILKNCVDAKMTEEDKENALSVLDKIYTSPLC
Chain of Fel d1 (P30440 18-109, chain 2 of 2): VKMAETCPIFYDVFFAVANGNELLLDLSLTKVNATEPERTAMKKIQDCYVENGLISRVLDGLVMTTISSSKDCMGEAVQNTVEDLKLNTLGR

- binding result [1]: binds
B1: IgE mAb1_2 (antibody, V domains shown)
VH: QIQLVQSGPELKKPGETVKISCKASGYTFTTYGMSWVKQAPGKGLKWMGWINTYSGVPTYADDFKGRFVFSLETSASTAYLQINNLKNEDTATYFCARAYYYGSSYLIWYFDVWGTGTTVTVSS
VL: NIVLTQSPASLAVSLGQRATISCRASESVDSYGNSFMHWYQQKPGQPPKLLIYLASNLESGVPARFSGSGSRTDFTLTIDPVEADDAATYYCQQNNEDPYTFGGGTKLEIK

- binding result [3]: binds
B3: IgE mAb 8_2 (antibody, V domains shown)
VH: QVLLKESGPGLVAPSQSLSITCTVSGFSLTSYGVSWVRQPPGKGLEWLGVIWGDGNTDYHSALISRLSIRKDNSKSQVFLKLNSLQTDDTATYYCAIGSPFAYWGQGTLVTVSA
VL: DVLMTQTPLSLPVSLGDQVSISCRSSQNIVHSTGNTYLEWYLQKPGQSPKLLIFKVSNRLSGVPDRFSGSGSGTDFTLNISRVEAADLGIYSCFQGSHVPFTFGSGTKLEIK

Further lines, the binder ahead of its results:

B2: IgE monoclonal antibody mAb12_2 (antibody, V domains shown)
VH: QAYLQQSGAELVRPGASVKMSCKASGYTFISYNMHWVKQTRRQGLEWIGAIYPGNGDTSYNQKFKGKATLTVDKSSSTAYMQLSSLTSEDSAVYFCARWDYYGSSYGAYWGQGTLVTVSA
VL: DIQMTQSPASLSVSVGETVTITCRASENIYSNLAWYQQKQGKSPQLLVYAATNLADGVPSRFSGSGSGTQYSLKINSLQSEDFGSYYCQHFWGTPWTFGGGTKLEIK
- binding result [2]: no binding
- binding result [1]: binds
- binding result [3]: binds
- binding result [4]: binds
- binding result [5]: binds

B4: IgE mAb 21_2 (antibody, V domains shown)
VH: QVQLQQSGPELVKPGASVKISCKAPGNAFSYSWMNWVKQRPGKGLEWVGRIYPGDGDTNYNGKFMGKATLTADKSSNTAYIQLSSLTSEDSAVYFCARSGGGTLYWYFDVWGTGTTVTVSS
VL: DIVMTQSPSSLALSVGQKVTMNCRSSQSLLNSFNQKNYLAWFQQKPGQSPRLLIYFASTRESGVPDRFIGSGSGTDFTLTISSVQAEDLADYFCQQHYNTPLTFGAGTTLELK
- binding result [3]: binds
